Measured values published in patent publication US20190322730A1 (NGM BIOPHARMACEUTICALS, published 2019).

Legend:
C3d [1] = target: T1, C3d (UniProt P01024 1002-1303, limits assumed); assay: binding screen of Example 5; method and unit not stated
T1 construct: domain: C3d

C3a [2] = target: T2, C3a (human, UniProt P01024 672-748); assay: as above
Factor Bb [3] = target: T3, Factor Bb (UniProt P00751 260-764); assay: as above
T3 construct: domain: Factor Bb

[4] = target: T4, human complement component C3 (human, UniProt P01024 23-667; P01024 672-1663); assay: as above
T4 construct: also called human C3
T4 sequence (P01024 23-667, chain 1 of 2): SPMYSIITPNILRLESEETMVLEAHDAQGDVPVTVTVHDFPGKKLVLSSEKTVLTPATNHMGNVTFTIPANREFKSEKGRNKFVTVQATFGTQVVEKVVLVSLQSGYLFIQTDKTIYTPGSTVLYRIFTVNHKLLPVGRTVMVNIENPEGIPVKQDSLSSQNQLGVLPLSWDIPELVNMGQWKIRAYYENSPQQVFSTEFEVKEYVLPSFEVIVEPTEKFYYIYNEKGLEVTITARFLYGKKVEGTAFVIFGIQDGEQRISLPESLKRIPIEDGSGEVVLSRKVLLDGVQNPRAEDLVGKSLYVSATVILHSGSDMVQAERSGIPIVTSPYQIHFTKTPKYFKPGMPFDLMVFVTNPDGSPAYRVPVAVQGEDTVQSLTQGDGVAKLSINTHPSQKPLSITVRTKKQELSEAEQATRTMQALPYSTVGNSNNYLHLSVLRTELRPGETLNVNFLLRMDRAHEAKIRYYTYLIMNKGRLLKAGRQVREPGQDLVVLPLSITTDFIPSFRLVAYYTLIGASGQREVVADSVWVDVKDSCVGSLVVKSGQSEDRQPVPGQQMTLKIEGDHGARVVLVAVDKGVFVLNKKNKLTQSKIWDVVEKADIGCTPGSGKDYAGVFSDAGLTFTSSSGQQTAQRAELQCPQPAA
T4 sequence (P01024 672-1663, chain 2 of 2): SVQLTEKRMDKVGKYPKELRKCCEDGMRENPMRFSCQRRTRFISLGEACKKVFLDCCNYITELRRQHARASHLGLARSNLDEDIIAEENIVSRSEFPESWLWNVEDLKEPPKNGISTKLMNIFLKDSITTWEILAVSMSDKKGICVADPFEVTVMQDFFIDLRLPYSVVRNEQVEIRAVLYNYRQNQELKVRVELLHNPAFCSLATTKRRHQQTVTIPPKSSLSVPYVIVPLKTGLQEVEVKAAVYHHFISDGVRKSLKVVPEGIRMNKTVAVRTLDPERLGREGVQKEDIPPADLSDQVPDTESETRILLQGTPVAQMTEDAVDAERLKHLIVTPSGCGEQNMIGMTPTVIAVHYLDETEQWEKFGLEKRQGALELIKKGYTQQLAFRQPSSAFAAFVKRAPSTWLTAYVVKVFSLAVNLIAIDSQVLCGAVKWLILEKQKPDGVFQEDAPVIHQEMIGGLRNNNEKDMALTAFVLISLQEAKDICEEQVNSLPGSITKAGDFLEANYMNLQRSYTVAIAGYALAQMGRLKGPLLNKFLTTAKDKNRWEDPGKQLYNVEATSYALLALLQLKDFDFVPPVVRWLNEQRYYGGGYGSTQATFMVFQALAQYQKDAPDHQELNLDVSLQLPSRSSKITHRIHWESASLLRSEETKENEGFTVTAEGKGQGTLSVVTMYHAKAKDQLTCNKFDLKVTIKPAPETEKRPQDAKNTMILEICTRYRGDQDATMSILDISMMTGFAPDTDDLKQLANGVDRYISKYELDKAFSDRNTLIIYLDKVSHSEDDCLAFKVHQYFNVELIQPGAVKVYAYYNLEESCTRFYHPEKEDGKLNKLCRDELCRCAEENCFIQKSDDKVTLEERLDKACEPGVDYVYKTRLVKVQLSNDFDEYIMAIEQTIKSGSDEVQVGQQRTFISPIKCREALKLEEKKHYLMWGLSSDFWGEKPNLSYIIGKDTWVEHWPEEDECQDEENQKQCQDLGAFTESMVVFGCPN

[5] = target: T5, cynomolgus monkey complement component C3 (cynomolgus monkey, UniProt P01024 24-1663 (human entry)); assay: cell-based or functional assay
T5 sequence (P01024 other isoform, or with tags, fused parts or gaps): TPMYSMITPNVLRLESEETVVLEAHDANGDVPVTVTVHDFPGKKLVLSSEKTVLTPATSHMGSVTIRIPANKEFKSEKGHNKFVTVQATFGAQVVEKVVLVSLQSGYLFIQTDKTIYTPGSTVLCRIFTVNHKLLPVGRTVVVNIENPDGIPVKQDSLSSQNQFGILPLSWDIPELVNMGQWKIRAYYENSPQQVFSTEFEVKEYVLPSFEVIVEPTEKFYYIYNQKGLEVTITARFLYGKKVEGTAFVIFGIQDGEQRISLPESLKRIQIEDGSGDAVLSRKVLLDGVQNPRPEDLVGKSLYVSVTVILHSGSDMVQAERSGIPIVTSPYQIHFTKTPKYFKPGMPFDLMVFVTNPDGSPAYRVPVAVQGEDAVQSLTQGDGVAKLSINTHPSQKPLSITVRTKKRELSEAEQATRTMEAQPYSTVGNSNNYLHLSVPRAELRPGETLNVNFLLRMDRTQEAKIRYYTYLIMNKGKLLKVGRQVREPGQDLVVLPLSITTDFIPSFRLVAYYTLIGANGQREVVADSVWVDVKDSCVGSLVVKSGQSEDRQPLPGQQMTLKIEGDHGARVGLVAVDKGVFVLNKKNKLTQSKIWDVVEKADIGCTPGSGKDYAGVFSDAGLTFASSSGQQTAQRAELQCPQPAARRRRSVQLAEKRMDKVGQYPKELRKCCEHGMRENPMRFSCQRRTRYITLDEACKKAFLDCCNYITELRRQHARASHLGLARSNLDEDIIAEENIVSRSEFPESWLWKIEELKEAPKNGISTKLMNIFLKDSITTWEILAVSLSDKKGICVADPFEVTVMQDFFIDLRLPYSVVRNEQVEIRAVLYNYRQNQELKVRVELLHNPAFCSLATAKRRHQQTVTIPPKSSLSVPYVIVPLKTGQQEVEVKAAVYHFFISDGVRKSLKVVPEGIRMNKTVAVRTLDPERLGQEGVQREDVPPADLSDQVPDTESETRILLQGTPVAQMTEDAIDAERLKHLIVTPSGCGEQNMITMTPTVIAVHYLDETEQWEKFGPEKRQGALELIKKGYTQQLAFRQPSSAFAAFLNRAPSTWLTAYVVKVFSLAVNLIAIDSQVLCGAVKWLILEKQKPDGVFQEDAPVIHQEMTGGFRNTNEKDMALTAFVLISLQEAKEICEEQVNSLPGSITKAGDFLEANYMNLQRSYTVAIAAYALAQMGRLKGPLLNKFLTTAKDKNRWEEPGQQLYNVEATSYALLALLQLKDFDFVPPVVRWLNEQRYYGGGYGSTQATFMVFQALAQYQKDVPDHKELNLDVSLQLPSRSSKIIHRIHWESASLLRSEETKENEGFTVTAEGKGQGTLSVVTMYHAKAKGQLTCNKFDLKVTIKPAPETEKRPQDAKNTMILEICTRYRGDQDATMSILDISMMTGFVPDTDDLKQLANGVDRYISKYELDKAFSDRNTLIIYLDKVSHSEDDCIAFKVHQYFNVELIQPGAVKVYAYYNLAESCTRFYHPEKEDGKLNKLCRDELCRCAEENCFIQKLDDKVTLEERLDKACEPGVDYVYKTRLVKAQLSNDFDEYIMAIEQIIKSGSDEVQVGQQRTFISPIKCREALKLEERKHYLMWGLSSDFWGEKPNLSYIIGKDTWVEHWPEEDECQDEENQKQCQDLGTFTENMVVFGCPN

[6] = target: T4, human complement component C3; assay: cell-based or functional assay
C3d [7] = target: T1, C3d; assay: binding screen of Example 5, relative to control mIgG2
C3a [8] = target: T2, C3a; assay: as above
Factor Bb [9] = target: T3, Factor Bb; assay: as above
[10] = target: T5, cynomolgus monkey complement component …; assay: SPR (Biacore), 37 C
Method: (§1) The binding affinities of exemplary anti-C3 antibodies to human C3 and cyno C3 were measured using a Biacore system (GE Healthcare LifeSciences). Briefly, anti-Fc antibody (Sigma-Aldrich) was immobilized on all four flow cells of a CM5 chip using amine coupling reagents (GE Healthcare LifeSciences). Antibodies were captured on flow cells 2, 3, and 4 using flow cell 1 as a reference. Concentrations ranging from 0.62-40 nM of human C3 or cyno C3 were injected at a flow rate of 50 μL/min at 37° C. Kinetic data were collected over time and fit using the simultaneous global fit equation to yield affinity constants (KD values) for each antibody.

[11] = target: T4, human complement component C3; assay: SPR (Biacore), 37 C
Method: as §1

[12] = target: T5, cynomolgus monkey complement component …; assay: SPR (Biacore), antibody captured by anti-Fc, C3 injected 0.62-40 nM, 37 C
Method: as §1

[13] = target: T4, human complement component C3; assay: as above
Method: as §1

[14] = target: T4, human complement component C3; assay: SPR (Biacore)
Method: as §1

[15] = target: T4, human complement component C3; assay: cell-based or functional assay; remark: listed apart in the source
[16] = target: T4, human complement component C3; assay: SPR (Biacore); Intact antibody
[17] = target: T4, human complement component C3; assay: cell-based or functional assay; remark: listed apart in the source
[18] = target: T4, human complement component C3; assay: SPR (Biacore), antibody captured by anti-Fc, C3 injected, 25 C; 25° C.
Method: as §1
(§2) A Biacore system was used to assess the binding affinities of the different molecules to human C3. […] Human C3 (concentration range 12-100 nM) was injected at a flow rate of 50 μL/min.

[19] = target: T5, cynomolgus monkey complement component …; assay: cell-based or functional assay; remark: listed apart in the source
[20] = target: T4, human complement component C3; assay: cell-based or functional assay; remark: listed apart in the source
[21] = target: T4, human complement component C3; assay: cell-based or functional assay; remark: listed apart in the source
[22] = target: T4, human complement component C3; assay: SPR (Biacore), antibody captured by anti-Fc, C3 injected, 37 C
Method: as §1, §2

[23] = target: T4, human complement component C3; assay: SPR (Biacore); remark: listed apart in the source

T1 sequence (P01024 1002-1303 limits assumed): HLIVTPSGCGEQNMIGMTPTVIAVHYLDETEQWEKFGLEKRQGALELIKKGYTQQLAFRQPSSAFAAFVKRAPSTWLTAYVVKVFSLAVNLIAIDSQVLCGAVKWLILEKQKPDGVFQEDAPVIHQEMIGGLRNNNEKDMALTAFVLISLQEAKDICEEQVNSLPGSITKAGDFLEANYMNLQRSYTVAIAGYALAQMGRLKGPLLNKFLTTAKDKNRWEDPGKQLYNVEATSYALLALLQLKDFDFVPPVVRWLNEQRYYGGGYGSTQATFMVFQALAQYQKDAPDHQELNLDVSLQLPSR
T3 sequence (P00751 260-764 limits assumed): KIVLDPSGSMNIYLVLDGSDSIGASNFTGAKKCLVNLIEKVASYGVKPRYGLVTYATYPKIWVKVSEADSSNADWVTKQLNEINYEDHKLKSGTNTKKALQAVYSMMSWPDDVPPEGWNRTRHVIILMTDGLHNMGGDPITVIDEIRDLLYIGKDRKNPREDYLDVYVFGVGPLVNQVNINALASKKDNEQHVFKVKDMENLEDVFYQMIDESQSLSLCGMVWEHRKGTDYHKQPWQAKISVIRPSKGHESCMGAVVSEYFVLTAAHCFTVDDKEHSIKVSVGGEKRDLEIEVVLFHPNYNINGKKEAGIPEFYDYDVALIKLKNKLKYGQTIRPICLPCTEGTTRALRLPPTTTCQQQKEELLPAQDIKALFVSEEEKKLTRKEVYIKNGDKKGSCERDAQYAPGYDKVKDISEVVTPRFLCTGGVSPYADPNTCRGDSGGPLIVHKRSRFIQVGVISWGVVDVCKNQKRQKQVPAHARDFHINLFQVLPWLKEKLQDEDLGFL
T2 sequence (P01024 672-748 limits assumed): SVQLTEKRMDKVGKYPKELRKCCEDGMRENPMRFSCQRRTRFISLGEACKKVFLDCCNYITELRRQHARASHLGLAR

B1: antibody 38G10 (antibody, V domains shown)
VH: EVQLQQSGPELVKPGDSVKMSCKASGYTFTDFYMDWVKQSHGKSLEWIGYIYPHNGGTTYNQNFTGKATLTVDKSSNTAYMELHSLTSEDSAVYYCARRGGFDFDYWGQGTTLTVSS
VL: NIVMTQSPKSMSLSVGERVTLRCKASENVDTYVSWYQQKPEQSPKLLIYGASNRYTGVPDRFTGSGSATEFTLTISSVQAEDLVGYHCGQSHSYPLTFGAGTKLELK
notes: Mouse hybridoma antibody; Parent of Hz38G10; also called parental 38G10 antibody
binding relative to negative control mIgG2 (C3d [1]): 0 | binding relative to negative control mIgG2 (C3a [2]): 0.02 | binding relative to negative control mIgG2 (Factor Bb [3]): 0.01 | binding relative to negative control mIgG2 [4]: 0.53 | Hemolytic Assay IC50, Cyno AP [5]: 3.5 nM | Hemolytic Assay IC50, Human AP [6]: 1.9 nM | Hemolytic Assay IC50, Human CP [6]: 1.7 nM | binding result (C3d [7]): no binding | binding result (C3a [8]): no binding | binding result (Factor Bb [9]): no binding | Kd [10]: ~0.1 nM | Kd [11]: ~0.1 nM | Kd [12]: 0.16 nM | Kd [13]: 0.19 nM

B2: antibody Hz38G10 (antibody, human IgG1, kappa, V domains shown)
VH: QVQLVQSGAEVKKPGASVKVSCKASGYTFTDFYMDWVRQAPGQRLEWMGYIYPHNGGTTYNQQFTGRVTITVDKSASTAYMELSSLRSEDTAVYYCARRGGFDFDYWGQGTLVTVSS
VL: DIQMTQSPSSLSASVGDRVTITCKASENVDTYVSWYQQKPGKAPKLLIYGASNRYTGVPSRFSGSGSGTDFTFTISSLQPEDIATYHCGQSHSYPLTFGQGTKLEIKR
notes: also called humanized 38G10; Hz38G10 intact antibody
Kd [14]: 0.3 nM | fold more effective than COMP or COMP-PEG in inhibiting the alternative pathway [15]: ~10 fold | Kd [16]: 0.027 nM | AP human C3 IC50 (hemolysis) [17]: 5.9 nM | CP human C3 IC50 (hemolysis) [17]: 4 nM | Kd [18]: < 0.1 nM | Kd [10]: 1.8 nM | Alternative Pathway IC50 (hemolysis), Cyno C3 [19]: 4.8 nM | Classical Pathway IC50 (hemolysis), Cyno C3 [19]: 0.7 nM | Alternative Pathway IC50 (hemolysis), Human C3 [20]: 3.9 nM | Classical Pathway IC50 (hemolysis), Human C3 [20]: 5.2 nM | Alternative Pathway IC50 (hemolysis; run with COMP) [21]: 2.5 nM | Alternative Pathway IC50 (hemolysis; run with COMP-PEG) [21]: 4 nM | Classical Pathway IC50 (hemolysis; run with COMP) [21]: 2 nM | Classical Pathway IC50 (hemolysis; run with COMP-PEG) [21]: 4.1 nM | Kd [22]: 0.28 nM

B3: Hz38G10 dsscFv (scFv)
scFv: MDIQMTQSPSSLSASVGDRVTITCKASENVDTYVSWYQQKPGKAPKLLIYGASNRYTGVPSRFSGSGSGTDFTFTISSLQPEDIATYHCGQSHSYPLTFGCGTKLEIKGGGGSGGGGSGGGGSQVQLVQSGAEVKKPGASVKVSCKASGYTFTDFYMDWVRQAPGQCLEWMGYIYPHNGGTTYNQQFTGRVTITVDKSASTAYMELSSLRSEDTAVYYCARRGGFDFDYWGQGTLVTVSS
notes: also called Hz38G10 VL-linker-VH dsscFv
AP human C3 IC50 (hemolysis) [17]: 19.5 nM | CP human C3 IC50 (hemolysis) [17]: 15.3 nM | Kd [23]: 0.035 nM
